Results: the RNAGym collection of RNA variant scans (doi:10.1021/acssynbio.7b00057)

B1: Pistol ribozyme (parent)
chain: GGGUCGUUGUUCCAUAAUCGCGUGGAUAUGGCACGCAAGUUUCUACCGGGCACCGUAAAUGUCCGACUGGAGCCGUUCGGGCGGCUAUAAACAGACCUCAGGCCCGAAGCGUGGCGGCACCUGCCGCCGGUGGUAAAAAAGAUCGGAAGAGCACACGUCU

Variants of: B1
Assay: aptazyme ON/OFF ratio, guanine; higher = stronger switching; co-transcriptional cleavage with and without guanine

Variant	aptazyme ON/OFF ratio
GGGUCGCGUUCACAUAAUCGCGUGGAUAUGGCACGCAAGUUUCUACCGGGCACCGUAAAUGUCCGACUGGAGCCGUUCGGGCGGCUAUAAACAGACCUCAGGCCCGAAGCGUGGCGGCACCUGCCGCCGGUGGUAAAAAAGAUCGGAAGAGCACACGUCU [U7C U8G G9U U11C C12A]	1.41
GGGUCGCGUUCGCAUAAUCGCGUGGAUAUGGCACGCAAGUUUCUACCGGGCACCGUAAAUGUCCGACUGGAGCCGUUCGGGCGGCUAUAAACAGACCUCAGGCCCGAAGCGUGGCGGCACCUGCCGCCGGUGGUAAAAAAGAUCGGAAGAGCACACGUCU [U7C U8G G9U U11C C12G]	1.32
GGGUCGCGUUCUCAUAAUCGCGUGGAUAUGGCACGCAAGUUUCUACCGGGCACCGUAAAUGUCCGACUGGAGCCGUUCGGGCGGCUAUAAACAGACCUCAGGCCCGAAGCGUGGCGGCACCUGCCGCCGGUGGUAAAAAAGAUCGGAAGAGCACACGUCU [U7C U8G G9U U11C C12U]	1.21
GGGUCGCGUUAUGAUAAUCGCGUGGAUAUGGCACGCAAGUUUCUACCGGGCACCGUAAAUGUCCGACUGGAGCCGUUCGGGCGGCUAUAAACAGACCUCAGGCCCGAAGCGUGGCGGCACCUGCCGCCGGUGGUAAAAAAGAUCGGAAGAGCACACGUCU [U7C U8G G9U U11A C12U C13G]	1.24
GGGUCGCGUUAUAAUAAUCGCGUGGAUAUGGCACGCAAGUUUCUACCGGGCACCGUAAAUGUCCGACUGGAGCCGUUCGGGCGGCUAUAAACAGACCUCAGGCCCGAAGCGUGGCGGCACCUGCCGCCGGUGGUAAAAAAGAUCGGAAGAGCACACGUCU [U7C U8G G9U U11A C12U C13A]	1.43
GGGUCGCGUUAUUAUAAUCGCGUGGAUAUGGCACGCAAGUUUCUACCGGGCACCGUAAAUGUCCGACUGGAGCCGUUCGGGCGGCUAUAAACAGACCUCAGGCCCGAAGCGUGGCGGCACCUGCCGCCGGUGGUAAAAAAGAUCGGAAGAGCACACGUCU [U7C U8G G9U U11A C12U C13U]	1.45
GGGUCGCGUUCGGAUAAUCGCGUGGAUAUGGCACGCAAGUUUCUACCGGGCACCGUAAAUGUCCGACUGGAGCCGUUCGGGCGGCUAUAAACAGACCUCAGGCCCGAAGCGUGGCGGCACCUGCCGCCGGUGGUAAAAAAGAUCGGAAGAGCACACGUCU [U7C U8G G9U U11C C12G C13G]	1.17
GGGUCGCGUUCGUAUAAUCGCGUGGAUAUGGCACGCAAGUUUCUACCGGGCACCGUAAAUGUCCGACUGGAGCCGUUCGGGCGGCUAUAAACAGACCUCAGGCCCGAAGCGUGGCGGCACCUGCCGCCGGUGGUAAAAAAGAUCGGAAGAGCACACGUCU [U7C U8G G9U U11C C12G C13U]	1.35
GGGUCGCGUUCGAAUAAUCGCGUGGAUAUGGCACGCAAGUUUCUACCGGGCACCGUAAAUGUCCGACUGGAGCCGUUCGGGCGGCUAUAAACAGACCUCAGGCCCGAAGCGUGGCGGCACCUGCCGCCGGUGGUAAAAAAGAUCGGAAGAGCACACGUCU [U7C U8G G9U U11C C12G C13A]	1.26
GGGUCGCGUUCAGAUAAUCGCGUGGAUAUGGCACGCAAGUUUCUACCGGGCACCGUAAAUGUCCGACUGGAGCCGUUCGGGCGGCUAUAAACAGACCUCAGGCCCGAAGCGUGGCGGCACCUGCCGCCGGUGGUAAAAAAGAUCGGAAGAGCACACGUCU [U7C U8G G9U U11C C12A C13G]	1.13
GGGUCGCGUUCAAAUAAUCGCGUGGAUAUGGCACGCAAGUUUCUACCGGGCACCGUAAAUGUCCGACUGGAGCCGUUCGGGCGGCUAUAAACAGACCUCAGGCCCGAAGCGUGGCGGCACCUGCCGCCGGUGGUAAAAAAGAUCGGAAGAGCACACGUCU [U7C U8G G9U U11C C12A C13A]	1.31
GGGUCGCGUUCAUAUAAUCGCGUGGAUAUGGCACGCAAGUUUCUACCGGGCACCGUAAAUGUCCGACUGGAGCCGUUCGGGCGGCUAUAAACAGACCUCAGGCCCGAAGCGUGGCGGCACCUGCCGCCGGUGGUAAAAAAGAUCGGAAGAGCACACGUCU [U7C U8G G9U U11C C12A C13U]	1.33
GGGUCGCGUUCCUAUAAUCGCGUGGAUAUGGCACGCAAGUUUCUACCGGGCACCGUAAAUGUCCGACUGGAGCCGUUCGGGCGGCUAUAAACAGACCUCAGGCCCGAAGCGUGGCGGCACCUGCCGCCGGUGGUAAAAAAGAUCGGAAGAGCACACGUCU [U7C U8G G9U U11C C13U]	1.09
GGGUCGCGUUCCAAUAAUCGCGUGGAUAUGGCACGCAAGUUUCUACCGGGCACCGUAAAUGUCCGACUGGAGCCGUUCGGGCGGCUAUAAACAGACCUCAGGCCCGAAGCGUGGCGGCACCUGCCGCCGGUGGUAAAAAAGAUCGGAAGAGCACACGUCU [U7C U8G G9U U11C C13A]	1.12
GGGUCGCGUUCCGAUAAUCGCGUGGAUAUGGCACGCAAGUUUCUACCGGGCACCGUAAAUGUCCGACUGGAGCCGUUCGGGCGGCUAUAAACAGACCUCAGGCCCGAAGCGUGGCGGCACCUGCCGCCGGUGGUAAAAAAGAUCGGAAGAGCACACGUCU [U7C U8G G9U U11C C13G]	1.02
GGGUCGCGUUGAGAUAAUCGCGUGGAUAUGGCACGCAAGUUUCUACCGGGCACCGUAAAUGUCCGACUGGAGCCGUUCGGGCGGCUAUAAACAGACCUCAGGCCCGAAGCGUGGCGGCACCUGCCGCCGGUGGUAAAAAAGAUCGGAAGAGCACACGUCU [U7C U8G G9U U11G C12A C13G]	1.24
GGGUCGCGUUGAAAUAAUCGCGUGGAUAUGGCACGCAAGUUUCUACCGGGCACCGUAAAUGUCCGACUGGAGCCGUUCGGGCGGCUAUAAACAGACCUCAGGCCCGAAGCGUGGCGGCACCUGCCGCCGGUGGUAAAAAAGAUCGGAAGAGCACACGUCU [U7C U8G G9U U11G C12A C13A]	1.17
GGGUCGCGUUGAUAUAAUCGCGUGGAUAUGGCACGCAAGUUUCUACCGGGCACCGUAAAUGUCCGACUGGAGCCGUUCGGGCGGCUAUAAACAGACCUCAGGCCCGAAGCGUGGCGGCACCUGCCGCCGGUGGUAAAAAAGAUCGGAAGAGCACACGUCU [U7C U8G G9U U11G C12A C13U]	1.21

Variant	aptazyme ON/OFF ratio
GGGUCGCGUUAGUAUAAUCGCGUGGAUAUGGCACGCAAGUUUCUACCGGGCACCGUAAAUGUCCGACUGGAGCCGUUCGGGCGGCUAUAAACAGACCUCAGGCCCGAAGCGUGGCGGCACCUGCCGCCGGUGGUAAAAAAGAUCGGAAGAGCACACGUCU [U7C U8G G9U U11A C12G C13U]	1.08
GGGUCGCGUUCUGAUAAUCGCGUGGAUAUGGCACGCAAGUUUCUACCGGGCACCGUAAAUGUCCGACUGGAGCCGUUCGGGCGGCUAUAAACAGACCUCAGGCCCGAAGCGUGGCGGCACCUGCCGCCGGUGGUAAAAAAGAUCGGAAGAGCACACGUCU [U7C U8G G9U U11C C12U C13G]	1.07
GGGUCGCGUUCUAAUAAUCGCGUGGAUAUGGCACGCAAGUUUCUACCGGGCACCGUAAAUGUCCGACUGGAGCCGUUCGGGCGGCUAUAAACAGACCUCAGGCCCGAAGCGUGGCGGCACCUGCCGCCGGUGGUAAAAAAGAUCGGAAGAGCACACGUCU [U7C U8G G9U U11C C12U C13A]	1.38
GGGUCGCGUUCUUAUAAUCGCGUGGAUAUGGCACGCAAGUUUCUACCGGGCACCGUAAAUGUCCGACUGGAGCCGUUCGGGCGGCUAUAAACAGACCUCAGGCCCGAAGCGUGGCGGCACCUGCCGCCGGUGGUAAAAAAGAUCGGAAGAGCACACGUCU [U7C U8G G9U U11C C12U C13U]	1.32
GGGUCGCGUUAUCAUAAUCGCGUGGAUAUGGCACGCAAGUUUCUACCGGGCACCGUAAAUGUCCGACUGGAGCCGUUCGGGCGGCUAUAAACAGACCUCAGGCCCGAAGCGUGGCGGCACCUGCCGCCGGUGGUAAAAAAGAUCGGAAGAGCACACGUCU [U7C U8G G9U U11A C12U]	1.39
GGGUCGCGUUCCCAUAAUCGCGUGGAUAUGGCACGCAAGUUUCUACCGGGCACCGUAAAUGUCCGACUGGAGCCGUUCGGGCGGCUAUAAACAGACCUCAGGCCCGAAGCGUGGCGGCACCUGCCGCCGGUGGUAAAAAAGAUCGGAAGAGCACACGUCU [U7C U8G G9U U11C]	1.13
GGGUCGCGUUGCCAUAAUCGCGUGGAUAUGGCACGCAAGUUUCUACCGGGCACCGUAAAUGUCCGACUGGAGCCGUUCGGGCGGCUAUAAACAGACCUCAGGCCCGAAGCGUGGCGGCACCUGCCGCCGGUGGUAAAAAAGAUCGGAAGAGCACACGUCU [U7C U8G G9U U11G]	1.2
GGGUCGCGUUGUGAUAAUCGCGUGGAUAUGGCACGCAAGUUUCUACCGGGCACCGUAAAUGUCCGACUGGAGCCGUUCGGGCGGCUAUAAACAGACCUCAGGCCCGAAGCGUGGCGGCACCUGCCGCCGGUGGUAAAAAAGAUCGGAAGAGCACACGUCU [U7C U8G G9U U11G C12U C13G]	1.23
GGGUCGCGUUGUAAUAAUCGCGUGGAUAUGGCACGCAAGUUUCUACCGGGCACCGUAAAUGUCCGACUGGAGCCGUUCGGGCGGCUAUAAACAGACCUCAGGCCCGAAGCGUGGCGGCACCUGCCGCCGGUGGUAAAAAAGAUCGGAAGAGCACACGUCU [U7C U8G G9U U11G C12U C13A]	1.32
GGGUCGCGUUGGCAUAAUCGCGUGGAUAUGGCACGCAAGUUUCUACCGGGCACCGUAAAUGUCCGACUGGAGCCGUUCGGGCGGCUAUAAACAGACCUCAGGCCCGAAGCGUGGCGGCACCUGCCGCCGGUGGUAAAAAAGAUCGGAAGAGCACACGUCU [U7C U8G G9U U11G C12G]	1.35
GGGUCGCGUUGACAUAAUCGCGUGGAUAUGGCACGCAAGUUUCUACCGGGCACCGUAAAUGUCCGACUGGAGCCGUUCGGGCGGCUAUAAACAGACCUCAGGCCCGAAGCGUGGCGGCACCUGCCGCCGGUGGUAAAAAAGAUCGGAAGAGCACACGUCU [U7C U8G G9U U11G C12A]	1.27
GGGUCGCGUUGUCAUAAUCGCGUGGAUAUGGCACGCAAGUUUCUACCGGGCACCGUAAAUGUCCGACUGGAGCCGUUCGGGCGGCUAUAAACAGACCUCAGGCCCGAAGCGUGGCGGCACCUGCCGCCGGUGGUAAAAAAGAUCGGAAGAGCACACGUCU [U7C U8G G9U U11G C12U]	1.27
GGGUCGCGUUGGUAUAAUCGCGUGGAUAUGGCACGCAAGUUUCUACCGGGCACCGUAAAUGUCCGACUGGAGCCGUUCGGGCGGCUAUAAACAGACCUCAGGCCCGAAGCGUGGCGGCACCUGCCGCCGGUGGUAAAAAAGAUCGGAAGAGCACACGUCU [U7C U8G G9U U11G C12G C13U]	1.11
GGGUCGCGUUGGAAUAAUCGCGUGGAUAUGGCACGCAAGUUUCUACCGGGCACCGUAAAUGUCCGACUGGAGCCGUUCGGGCGGCUAUAAACAGACCUCAGGCCCGAAGCGUGGCGGCACCUGCCGCCGGUGGUAAAAAAGAUCGGAAGAGCACACGUCU [U7C U8G G9U U11G C12G C13A]	1.1
GGGUCGCGUUGGGAUAAUCGCGUGGAUAUGGCACGCAAGUUUCUACCGGGCACCGUAAAUGUCCGACUGGAGCCGUUCGGGCGGCUAUAAACAGACCUCAGGCCCGAAGCGUGGCGGCACCUGCCGCCGGUGGUAAAAAAGAUCGGAAGAGCACACGUCU [U7C U8G G9U U11G C12G C13G]	1.18
GGGUCGCGUUACAAUAAUCGCGUGGAUAUGGCACGCAAGUUUCUACCGGGCACCGUAAAUGUCCGACUGGAGCCGUUCGGGCGGCUAUAAACAGACCUCAGGCCCGAAGCGUGGCGGCACCUGCCGCCGGUGGUAAAAAAGAUCGGAAGAGCACACGUCU [U7C U8G G9U U11A C13A]	1.28
GGGUCGCGUUACGAUAAUCGCGUGGAUAUGGCACGCAAGUUUCUACCGGGCACCGUAAAUGUCCGACUGGAGCCGUUCGGGCGGCUAUAAACAGACCUCAGGCCCGAAGCGUGGCGGCACCUGCCGCCGGUGGUAAAAAAGAUCGGAAGAGCACACGUCU [U7C U8G G9U U11A C13G]	1.09
GGGUCGCGUUACUAUAAUCGCGUGGAUAUGGCACGCAAGUUUCUACCGGGCACCGUAAAUGUCCGACUGGAGCCGUUCGGGCGGCUAUAAACAGACCUCAGGCCCGAAGCGUGGCGGCACCUGCCGCCGGUGGUAAAAAAGAUCGGAAGAGCACACGUCU [U7C U8G G9U U11A C13U]	1.28
